{
  "source": "the DeepSol protein solubility set",
  "data": [
    {"experiment": "soluble on expression in E. coli; label from the status in PepcDB or PDB records", "values": [
      {"sequence": "MAHHHHHHMSQLAHNVNLSIFEPISHHRANRIVCTIGPSTQSVEALKGLIRSGMSVARMNFSHGSHEYHQTTINNLRAAATELGAHIGLALDTKGPEIRTGLFKDGGIALAPGDTVLVTSDPAFEKIGTKEKFYIEYPRLSITVRPGGFIYIDDGVLSLKVLSKEDEYTLKCYVNNAHFLTDRKGCNLPGCEVDLPAVSEKDREDLKFGVEQGIDMVFASFIRTAEQVQEVREALGEKGKDILIISKIENHQGVQNIDGIIEASDGIMVARGDLGVEIPAEKVVVAQMILISKCNVAGKPVICATQMLESMTTNPRPTRAEVSDVANAVFNGADCVMLSGETAKGKYPNEVVQYMARICLEAQSATNQAVMFNSIKKMQKLPMSPEEAVCSSAVNSVYEVRAKALLVLSNSGRSARLASKYRPDCPIICATTRMRTCRQLTITRSVDAVFYDAERYGEDENKEKRVQLGVDCAKKKGYVVPGDLMVVVHADHKVKGYPNQTRIIYVS", "soluble on expression in E. coli": "not soluble"},
      {"sequence": "MGSDKIHHHHHHAQTKSLHQLQQEFVDLRCGMFIHFNMPTFFNEDWPDPDAAPELFNPVRMDCKQWAKAAKSANMTYGCLTTKHHSGFCIWDTKTTDYSVMSSPFKRDVVKEYADAFRAEGMKVMLYYSILDTHARLRPKCITPQHIEMIKEQLRELLTNYGEITALIIDGWDAPWSRISYDDVPFEDIYRLVKSIQPNCLVMDLNAAKYPAEALFYTDIKSYEQGAGQHISKDTNRLPALSCLPLQQNWFWKESFPTTPVKSPAQMVNDNIIPMGKSYCNFILNVAPNRDGLMDANALKALKEIGKLWKNDGRVATVPEADAPIISSNIAKYQPAEGTWSSDYAIMDFANDDDFGTCWNSNPEVKVPWYSVTFEREKSFNMVVITDRNNDRLQEYRLEYRAGGTWKPLYEGKAPTGLRVKIHRFDTVWGDAVRMTVLNSNGTTSIAEFGVYCERR", "soluble on expression in E. coli": "not soluble"},
      {"sequence": "MGSDKIHHHHHHMTDCADAQGLIAKITGVCFNHQLNIIKNSEFVDNAQGRFFMRTELEGHFHCEQLLQDLRQVLPAQNHMTLVSAGKKRIVILVTKEAHCLGDLLMKAYYGGLNVEIAAVVGNHDVLRELVEKFDIPFHLVSHEGLDRIQHEQALLAAVSQYSPDYLVLAKYMRVLTPDFVAEYPNRILNIHHSFLPAFIGAAPYRQAWERGVKIIGATAHFVNNCLDEGPIIKQDVIPVDHSYSALEMAKAGRDVEKSVLSKALQLVLNEQVVVYGNKTIVF", "soluble on expression in E. coli": "not soluble"},
      {"sequence": "RQNLSSDIDILQSDTMPANAELAGLLQVAVGDTLFRIKVLSKVENRVVDYATMFFPAARLPGLPDAYLRHRSVTRALDDCGVADYTRRFTRVTARLPDAETVDYLGIPKNRPVLHVKSLNVDGEGRPVQYGVTCFNGDLVQLVMEQE", "soluble on expression in E. coli": "not soluble"},
      {"sequence": "MKNLAIFDLDNTLINTDSDHAWPQYLIKKGLVDAAETEAQNEKFYRDYQNGCLDIDAFLKFHLAPLARYSKEELAEFHREFMAEYIIPHISPMQRMLVQSHQMAGDETLVISSTNEFIITPVCHLFGITNIIGTQLETGSDGRYTGNYIGTPSLKEGKITRLNQWLAERGETLQSYGKTYFYSDSKNDLPLLRLVSEPVAVNPDAELEKEAKEKGWPVLNFK", "soluble on expression in E. coli": "soluble"},
      {"sequence": "MTDNTRLRIAMQKSGRLSDDSRELLARCGIKINLHTQRLIAMAENMPIDILRVRDDDIPGLVMDGVVDLGIIGENVLEEELLNRRAQGEDPRYFTLRRLDFGGCRLSLATPVDEAWDGPLSLNGKRIATSYPHLLKRYLDQKGISFKSCLLNGSVEVAPRAGLADAICDLVSTGATLEANGLREVEVIYRSKACLIQRDGEMEESKQQLIDKLLTRIQGVIQARESKYIMMHAPTERLDEVIALLPGAERPTILPLAGDQQRVAMHMVSSETLFWETMEKLKALGASSILVLPIEKMME", "soluble on expression in E. coli": "soluble"},
      {"sequence": "MLRLLLLCWLCGVSFIGGAQELRVKDTASLTQALVQAQDGDTLVLDTAVYEGNFSVTRSIHIKGEAGATLDAQRQGSALTITAPKVIVEGLNIRHWGRDLYYHDAGILLLPGADEVLIKGNRFVGDGFGIYGEQLASPRIIENSISGNGAIYVLDRGDGIFLKHVTAPDVQQNHIIFVRDGVYLESVTDSKIHHNQFAKLQYGIHYMYTRGDEASQNQATSVDGGYALMNSQQIYLHHNRVSQARDFGILLNITNDSHVQANIATEVQHPQGSVELGNEGKGIFIYAAQNNRIEDNEFSQSDTGISMAMGGEANRLWHNRILGNQTQVKYVGEAQLEWSYQGQGNYWSEYRGWDTNGDGVGDIAHRPNDSLDKLFWLYPEAKLLMESPVVLLLRWVERQFQPTSISGVSDSFPLMRLITEGDGIAAALEHHHHHH", "soluble on expression in E. coli": "soluble"},
      {"sequence": "GPGSMMVLDIQLFRDETGANIIRESQRRRFADPDIVDAIIEADKKWRRTQFLTEASKKLINICSKAVGAKKKAKEADGDTSEIPPQVKEAYENGTLKGEQVEQLCVLQLKQLSKDLSDQVAGLAKEAQQLEEERDKLMLNVGNILHESVPIAQDEETGNTVVRTFGNTTKRAKLNHVSIMERLGMMDTSKAVTSMAGGRSYVLKGGLVQLQVALVSYSLDFLVKRGYTPFYPPFFLNRDVMGEVAQLSQFDEELYQVSGDGDKKYLIATSEMPIAAYHRGRWFTELKEPLKYAGMSTCFRKEAGAHGRDTLGIFRVHQFDKIEQFVVCSPRQEESWRHLEDMITTSEEFNKSLGLPYRVVNICSGALNNAAAKKYDLEAWFPASGAFRELVSCSNCTDYQSQSVNCRYGPNLRGTAAQNVKEYCHMLNGTLCAITRTMCCICENYQTEEGVVIPDVLRPYMMGIEMIRFENNAQAEGTTPDKGE", "soluble on expression in E. coli": "soluble"},
      {"sequence": "MAHKSKSPYLMYPEKEPFPILNKHSHYDHLFEEMYELEEKGEILVFRITEEYRPKYVYTRTGRIKVIPTNKLWHHKSCGQCGNIPGYPASIFWFMNKFGLDYLNEPHQTSCTAWNYHGSGTSNPVALAAVWLRNMHQAWKTGYYPLIHCGTSFGSYKETREQLIFNKELREAVKPILKKLGRLTEDGRIVIPQEIVHYSEWVHAMRDGNSRPLRKRKESPKE", "soluble on expression in E. coli": "not soluble"},
      {"sequence": "MASDYKDDDDKRRRGMEGAKLSAVRIAVREAPYRQFLGRREPSVVQFPPWSDGKSLIVDQNEFHFDHAFPATISQDEMYQALILPLVDKLLEGFQCTALAYGQTGTGKSYSMGMTPPGEILPEHLGILPRALGDIFERVTARQENNKDAIQVYASFIEIYNEKPFDLLGSTPHMPMVAARCQRCTCLPLHSQADLHHILELGTRNRRVRPTNMNSNSSRSHAIVTIHVKSKTHHSRMNIVDLAGSEGVRRTGHEGVARQEGVNINLGLLSINKVVMSMAAGHTVIPYRDSVLTTVLQASLTAQSYLTFLACISPHQCDLSETLSTLRFGTSAKAAALEHHHHHH", "soluble on expression in E. coli": "soluble"},
      {"sequence": "MGSDKIHHHHHHMYCGVPEEDPDKLVALILSGGQSSRMGTDKGSMELNGERLVERAGNLCASAGLPFYYSINASQNQQYLNFLPADALIVDTLDDIKGPLAGLLSFYVKYPNTDVLLLPCDMIHLGKSILSDLVQAYETMSIGHDIIVYQYANEIIEPMPGIYTSEALRKIYWLFLSGDLTRFSLKYCIEISNSFFIPIKKEAEVLFKNINSPEDITPSK", "soluble on expression in E. coli": "not soluble"},
      {"sequence": "AKVVCVLYDDPINGYPTSYARDDLPRIDKYPDGQTLPTPKAIDFTPGALLGSVSGELGLRKYLESQGHELVVTSSKDGPDSELEKHLHDAEVIISQPFWPAYLTAERIAKAPKLKLALTAGIGSDHVDLQAAIDNNITVAEVTYCNSNSVAEHVVMMVLGLVRNYIPSHDWARNGGWNIADCVARSYDVEGMHVGTVAAGRIGLRVLRLLAPFDMHLHYTDRHRLPEAVEKELNLTWHATREDMYGACDVVTLNCPLHPETEHMINDETLKLFKRGAYLVNTARGKLCDRDAIVRALESGRLAGYAGDVWFPQPAPNDHPWRTMPHNGMTPHISGTSLSAQTRYAAGTREILECYFEGRPIRDEYLIVQGGGLAGVGAHSYSKGNATGGSEEAAKYEKLDA", "soluble on expression in E. coli": "soluble"},
      {"sequence": "MPAAGQAPGPECPDVLIIGGGPAGCAAAIVLAQQGWAVTLLEKEQHPRFHIGESLLPMNIPILERLGVLEQVRDIGVLKRGADFPNDAGGYNTFRFSHALDAKADYAFQVPRAQFDQVLFARAREVGVDAREQVKVESVAFDGEQPVLQARGVDGVQQFRPRYLLDASGRDTFMGNRLKLKRANAKHQSAAVFSHFRGVTRRPGEDAGNISIYRHAHGWMWLIPLPDDVMSVGAVCYPDYMKTRKGDSEGFLLRTLALNPEVAARMADAERVAPVHATGNYAYECTRMSGPRWLLLGDAYTFVDPMFSSGVFLAMHSAERGAAMVDAVLRAPHREASLQRALSRELARGLSEFKWFIYRFTSPTMRALFAQPQNVWQVEQAVVAMLAGDVFDSPKVRRRLRVFRAIYSVTALSMLPRAWHAWRHRRRQARLGFDGDTLHRDAPLEHHHHHH", "soluble on expression in E. coli": "not soluble"}
    ]}
  ]
}
